# Results from US20230049752A1 (University of California, published 2023).
# Substitutions are numbered along the chain they refer to.
# B1: AB S4 (antibody, V domains shown)
# VH: EVQLLESGGGLVQPGGSMRLSCAASGFTFSNYWMNWVRQAPGKGLEWIAQIRLKSDNYATHYTDSVKGRFTISRDDSKSTVYLQMNSLRAEDTGTYYCNDGPPSGSWGQGTLLTVSS
# VL: DIQMTQSPSSLSASVGDRVTITCRISENIYSYLAWYQQKPGKAPKLLVYNAKILVEGVPSRFSGSGSGTDFTLTISSLQPEDFGTYYCQHHYTVPWTFGQGTKLEIK
# B2: AB S5 (antibody, V domains shown)
# VH: B1 VH with I48L, S79R, T95I, N99S
# VL: B1 VL
# B3: AB S6 (antibody, V domains shown)
# VH: B1 VH with I48L, A59V, T63A, S79R
# VL: B1 VL
# B4: AB S7 (antibody, V domains shown)
# VH: QVQLVQSGAEVKKPGASVKMSCKASGYTFTTYTIHWVRQAPGQGLEWIGFINPSSGYTEYAQKFQGRVTLTADKSTSTVYMELSSLRSEDTAVYFCANGDYYVAYWGQGTLVTVSS
# VL: DIQLTQSPSSLSASVGDRVTMTCTASSSVSSTYFHWYQQKPGKAPKLWIYSTSNLASGVPSRFSGSGSGTDYTLTISSMQPEDAATYYCHQYHRSPLTFGQGTKLEIK
# B5: AB S8 (antibody, V domains shown)
# VH: B4 VH with I34M, F50V, A104G
# VL: B4 VL
# Biological target: human Claudin-6 (CLDN6) (human) (UniProt P56747)
# Assay: FACS, limiting dilution, OV90 cells
FACS signal at 0.32 nM,FACS signal at 1.6 nM,FACS signal at 8 nM,FACS signal at 40 nM,FACS signal at 200 nM,FACS signal at 1000 nM,Binder
432,515,1360,4590,15900,42000,B1
558,1040,5220,22500,73300,–,B2
467,791,2950,12600,38600,76600,B3
586,1910,4500,8570,24000,53900,B4
834,6410,26700,85900,–,–,B5

# Biological target: human Claudin-6 (CLDN6) (human) (UniProt P56747)
# Assay: FACS, limiting dilution, ARK2 cells
FACS signal at 0.32 nM,FACS signal at 1.6 nM,FACS signal at 8 nM,FACS signal at 40 nM,FACS signal at 200 nM,FACS signal at 1000 nM,Binder
354,438,1720,6350,31500,62500,B1
372,997,5560,25600,78800,–,B2
448,765,3800,14600,54100,–,B3
876,2350,6290,16000,47000,78700,B4
1640,10400,42600,–,–,–,B5

# Biological target: human Claudin-6 (CLDN6) (human) (UniProt P56747)
# Assay: FACS, limiting dilution, UMUC4 cells
FACS signal at 0.32 nM,FACS signal at 1.6 nM,FACS signal at 8 nM,FACS signal at 40 nM,FACS signal at 200 nM,FACS signal at 1000 nM,Binder
518,651,1300,4120,13500,35000,B1
481,885,2340,7080,19000,47200,B2
1320,1690,3300,4120,12500,42300,B3
1440,1790,3940,7970,16700,37300,B4
720,6220,7200,16600,32900,40500,B5
